For assay [1], the target named is CD112R (UniProt Q6DKI7). The assay can be described thus: flow cytometry, CD112R-expressing cells, secondary reagent alone. In general terms: Flow cytometry measures light scatter and fluorescence of single cells or particles in a stream.
In assay [2] the target is T1, CD96 (UniProt P40200).
T1 sequence (looked up): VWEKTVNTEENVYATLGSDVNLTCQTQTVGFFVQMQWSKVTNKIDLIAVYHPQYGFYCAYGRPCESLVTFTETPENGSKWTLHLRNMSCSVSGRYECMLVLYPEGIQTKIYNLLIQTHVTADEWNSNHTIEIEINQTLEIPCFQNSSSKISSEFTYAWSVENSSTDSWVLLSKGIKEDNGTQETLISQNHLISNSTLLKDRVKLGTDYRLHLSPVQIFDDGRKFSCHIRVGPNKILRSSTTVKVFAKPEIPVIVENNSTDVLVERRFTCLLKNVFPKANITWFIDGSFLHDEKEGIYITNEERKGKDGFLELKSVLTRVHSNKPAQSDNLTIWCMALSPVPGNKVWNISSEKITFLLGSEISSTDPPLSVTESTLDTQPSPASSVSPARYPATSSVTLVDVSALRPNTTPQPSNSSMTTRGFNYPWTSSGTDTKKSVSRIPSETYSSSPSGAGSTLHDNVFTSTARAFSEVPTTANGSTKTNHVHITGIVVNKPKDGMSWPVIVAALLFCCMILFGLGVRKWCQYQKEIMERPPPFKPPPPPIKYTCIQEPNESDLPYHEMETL
Put plainly: flow cytometry, CD96-expressing cells, secondary reagent alone.

The target of assay [3] is TIGIT (Homo sapiens (Human)) (UniProt Q495A1). The assay can be described thus: flow cytometry, TIGIT-expressing cells, secondary reagent alone.
TIGIT (Homo sapiens (Human)), sequence (Q495A1 22-244): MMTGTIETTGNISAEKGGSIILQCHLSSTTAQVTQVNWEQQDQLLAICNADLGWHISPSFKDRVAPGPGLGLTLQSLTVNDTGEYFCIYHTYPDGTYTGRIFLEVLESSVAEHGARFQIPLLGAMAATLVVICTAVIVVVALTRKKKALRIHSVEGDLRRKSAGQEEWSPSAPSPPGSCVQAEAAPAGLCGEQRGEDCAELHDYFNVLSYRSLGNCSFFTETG
Assay [4] addresses CD226 (Homo sapiens (Human)) (UniProt Q15762). Put plainly: flow cytometry, CD226-expressing cells, secondary reagent alone.
The target of assay [5] is T1, CD96. Put plainly: flow cytometry, 100 nM Fc fusion on cells expressing CD96.
Assay [6] has as its target human PD-1 and human TIGIT co-expressed on Jurkat cells (Jurkat/PD-1/TIGIT cells) (human). Put plainly: flow cytometry, Jurkat/PD-1/TIGIT cells.
Assay [7] deals with human TIGIT expressed on cells (Jurkat/TIGIT cells) (human) (UniProt Q495A1). Put plainly: flow cytometry, Jurkat/TIGIT cells.
human TIGIT expressed on cells (Jurkat/TIGIT cells) (human), sequence (Q495A1 22-244): as above
Assay [8] has as its target human PD-1 expressed on cells (Jurkat/PD-1 cells) (human) (UniProt Q15116). Put plainly: flow cytometry, Jurkat/PD-1 cells.
The target of assay [9] is rB7H6.Fc (recombinant B7-H6 Fc fusion protein, R&D Systems) (human) (UniProt Q68D85). The assay can be described thus: flow cytometry of yeast-displayed parental NKp30 stained with […] rB7H6.Fc.
rB7H6.Fc (recombinant B7-H6 Fc fusion protein, R&D Systems) (human), sequence (Q68D85 25-262 limits assumed): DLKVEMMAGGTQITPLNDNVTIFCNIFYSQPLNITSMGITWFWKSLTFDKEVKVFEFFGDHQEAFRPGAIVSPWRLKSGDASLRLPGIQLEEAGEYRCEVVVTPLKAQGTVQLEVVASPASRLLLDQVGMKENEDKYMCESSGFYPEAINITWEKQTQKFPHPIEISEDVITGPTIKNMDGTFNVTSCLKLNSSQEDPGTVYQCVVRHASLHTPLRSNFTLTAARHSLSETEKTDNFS
The target of assay [10] is CD112R (UniProt Q6DKI7). Put plainly: flow cytometry, CD112R-expressing cells, 100 nM.
For assay [11], the target named is PD-1 stably expressed on Jurkat/IL-2 reporter cells (Jurkat/PD-1) (human) (UniProt Q15116). The assay can be described thus: cell-based or functional assay.
PD-1 stably expressed on Jurkat/IL-2 reporter cells (Jurkat/PD-1) (human), sequence (Q15116 25-288): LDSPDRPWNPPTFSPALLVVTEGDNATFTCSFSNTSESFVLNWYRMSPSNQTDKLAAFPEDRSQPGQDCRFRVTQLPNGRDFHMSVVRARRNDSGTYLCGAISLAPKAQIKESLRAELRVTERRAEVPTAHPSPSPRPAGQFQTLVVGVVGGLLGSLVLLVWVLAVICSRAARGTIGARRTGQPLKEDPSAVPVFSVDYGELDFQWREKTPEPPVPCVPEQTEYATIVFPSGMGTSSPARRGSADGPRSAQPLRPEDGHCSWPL

CD112R, sequence (Q6DKI7 whole entry): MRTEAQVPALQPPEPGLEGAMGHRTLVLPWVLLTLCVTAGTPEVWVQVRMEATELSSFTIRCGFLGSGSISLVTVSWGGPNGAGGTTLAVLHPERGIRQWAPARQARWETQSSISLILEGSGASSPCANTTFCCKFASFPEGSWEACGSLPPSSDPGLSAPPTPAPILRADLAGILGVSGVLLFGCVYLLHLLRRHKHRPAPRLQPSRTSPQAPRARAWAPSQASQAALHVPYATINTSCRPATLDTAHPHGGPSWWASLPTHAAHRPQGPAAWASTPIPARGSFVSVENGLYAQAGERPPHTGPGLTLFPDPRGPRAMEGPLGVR
human PD-1 and human TIGIT co-expressed on Jurkat cells (Jurkat/PD-1/TIGIT cells) (human), sequence (chain, as listed by the source, chain 1 of 2): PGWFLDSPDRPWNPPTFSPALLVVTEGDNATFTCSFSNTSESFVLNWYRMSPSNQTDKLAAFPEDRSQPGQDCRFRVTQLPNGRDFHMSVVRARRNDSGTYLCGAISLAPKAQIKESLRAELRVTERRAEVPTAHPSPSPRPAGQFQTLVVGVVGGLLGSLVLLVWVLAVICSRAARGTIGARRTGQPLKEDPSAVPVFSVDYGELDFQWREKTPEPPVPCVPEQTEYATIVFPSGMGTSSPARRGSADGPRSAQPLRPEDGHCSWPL
human PD-1 and human TIGIT co-expressed on Jurkat cells (Jurkat/PD-1/TIGIT cells) (human), sequence (chain, as listed by the source, chain 2 of 2): as the sequence (Q495A1 22-244) above
human PD-1 expressed on cells (Jurkat/PD-1 cells) (human), sequence (Q15116 21-288): as the sequence (chain, as listed by the source, chain 1 of 2) above
CD226 (Homo sapiens (Human)), sequence (Q15762 19-336): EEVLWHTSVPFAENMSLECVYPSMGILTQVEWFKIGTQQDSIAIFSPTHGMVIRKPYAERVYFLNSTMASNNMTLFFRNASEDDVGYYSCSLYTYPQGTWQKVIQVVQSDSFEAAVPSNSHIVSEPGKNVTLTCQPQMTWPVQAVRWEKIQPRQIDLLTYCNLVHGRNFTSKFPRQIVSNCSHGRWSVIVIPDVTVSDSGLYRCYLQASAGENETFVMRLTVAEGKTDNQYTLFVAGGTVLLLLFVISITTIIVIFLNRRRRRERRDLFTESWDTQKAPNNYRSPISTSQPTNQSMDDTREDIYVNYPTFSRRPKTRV

Turning to Anti-hFc PE (antibody), the MFI at 20 nM amounted to 1010 in [1], 1060 in [2], 1140 in assay [3] and 1010 in assay [4].
In turn, “CD112 variant IgV-Fc fusion V19A, N47K, N106Y, K116E, S118Y” had an MFI at 100 nM in [5] of 2850.
In [6], “Fc Control (heterodimer) (from UniProt P0DOX5 218-449; P0DOX5 218-449)” showed an MFI at 6.25 nM of 48 MFI.
On to “Fc Control (homodimer) (from UniProt P0DOX5 218-449)”, for which the MFI at 6.25 nM in assay [6] was 66 MFI.
As to “Human IgG (irrelevant Ig control) (antibody)”, the MFI at 6.25 nM is 48 MFI in assay [7], 41 MFI in [6] and 41 MFI in assay [8]. This substance also had a Fold increase over wildtype PD-L1 IgV-Fc in assay [8] of 0 fold. In addition, the MFI at 50 nM in assay [8] was 198 MFI.
“PD-L1 variant IgV-Fc I20L/K28E/D43G/N45D/V58A/Q89R (Fc fusion)”: in assay [8], the Fold increase over wildtype PD-L1 IgV-Fc was 15.4 fold and the MFI at 50 nM stood at 80500 MFI.
Take “Wild Type CD155 full ECD Fc (from UniProt P15151 21-343) (Fc fusion)”: the MFI at 6.25 nM in assay [6] worked out at 249 MFI.
For the substance “Wild Type PD-L2 full ECD Fc (from UniProt Q9BQ51 20-220) (Fc fusion)”, in assay [6], the MFI at 6.25 nM amounted to 314 MFI.
In the case of “parental NKp30 strain (wild-type NKp30 IgC-like domain displayed on yeast) (from UniProt O14931 19-134) (receptor)”, the MFI in assay [9] was 90.
As for “variant CD112 IgV-Fc R12W, Y33H, Q79R, V101M, A112V (Fc fusion)”, the MFI at 100 nM in [10] is 2050.
Consider “variant CD112 IgV-Fc Y33H, A112V, S118Y (Fc fusion)”, for which the MFI at 100 nM in assay [10] came out at 2350.
Regarding “variant PD-L2 IgV-Fc H15Q/T47A/K65R/S67L/Q82R/V89D (Fc fusion)”, the MFI at 6.25 nM in [6] came to 20300 MFI.
In [11], “variant PD-L2 IgV-Fc I13V,H15Q,T47A,E58G,S67L,Q82R,V89D (Fc fusion)” yielded a Fold increase over wildtype PD-L2 IgV-Fc (IFN gamma, MLR) of 0.61 fold and an IFN gamma levels pg/mL (MLR) of 836 pg/mL.

The values are drawn from patent publication US20210130437A1.
